# Substitutions are numbered along the chain they refer to.
# B1: 511-min (scFv, V domains shown)
# VH: EVQLVESGGGLVQPGGSLRLSCAASGFSLNTYYMNWVRQAPGKGLEWVSIIAPDDTTYYASWAKSRFTISRDNSKNTLYLQMNSLRAEDTAVYYCAKSGDTTAWGADIWGQGTLVTVSS
# VL: EIVMTQSPSTLSASVGDRVIITCQASQSINIWCSWYQQKPGKAPKLLIYRASTLASGVPSRFSGSGSGAEFTLTISSLQPDDFATYYCQANYAYSAGYGAAFGQGTKLTVL
# B2: 511-max (scFv)
# chain: EIVMTQSPSTLSASVGDRVIITCQASQSINIWLSWYQQKPGKAPKLLIYRASTLASGVPSRFSGSGSGTEFTLTISSLQPDDFATYYCQANYAYSAGYGAAFGQGTKLTVLGGGGGSGGGGSGGGGSGGGGSEVQLVESGGGLVQPGGSLRLSCTVSGFSLNTYYMNWVRQAPGKGLEWVGIIAPDDTTYYASWAKSRSTISRDTSKNTVYLQMNSLRAEDTAVYYCARSGDTTAWGADIWGQGTLVTVSS
# B3: 578-min (scFv)
# chain: EIVMTQSPSTLSASVGDRVIITCQASEIIHSWLAWYQQKPGKAPKLLIYLASTLASGVPSRFSGSGSGAEFTLTISSLQPDDFATYYCQNVYLASTNGANFGQGTKLTVLGGGGGSGGGGSGGGGSGGGGSEVQLVESGGGLVQPGGSLRLSCAASGFSLTDYYYMTWVRQAPGKGLEWVSFIDPDDDPYYATWAKGRFTISRDNSKNTLYLQMNSLRAEDTAVYYCAKGDHNSGWGLDIWGQGTLVTVSS
# B4: 567-min (scFv)
# chain: EIVMTQSPSTLSASVGDRVIITCQADQSIYIWLSWYQQKPGKAPKLLIYKASTLESGVPSRFSGSGSGAEFTLTISSLQPDDFATYYCQNNAHYSTNGGTFGQGTKLTVLGGGGGSGGGGSGGGGSGGGGSEVQLVESGGGLVQPGGSLRLSCAASGFSLSDYYMCWVRQAPGKGLEWVSCLDYFGSTDDASWAKGRFTISRDNSKNTLYLQMNSLRAEDTAVYYCAKTDDSRGWGLNIWGQGTLVTVSS
# B5: 509-min (scFv)
# chain: B4 chain with D26S, S28N, Y30R, D162S, F185V, S187D, D190Y
# B6: 578-max (scFv)
# chain: B3 chain with A69T, E70Q, A154T, S181G, N205T, L210V, K229G
# B7: 567-max (scFv)
# chain: B4 chain with A69T, E70Q, A154S, A155V, S180G, R202K, N204T, L209V, K228R
# Biological target: VEGF (as used in the VEGFR competition ELISA)
# Sequence (P15692 whole entry): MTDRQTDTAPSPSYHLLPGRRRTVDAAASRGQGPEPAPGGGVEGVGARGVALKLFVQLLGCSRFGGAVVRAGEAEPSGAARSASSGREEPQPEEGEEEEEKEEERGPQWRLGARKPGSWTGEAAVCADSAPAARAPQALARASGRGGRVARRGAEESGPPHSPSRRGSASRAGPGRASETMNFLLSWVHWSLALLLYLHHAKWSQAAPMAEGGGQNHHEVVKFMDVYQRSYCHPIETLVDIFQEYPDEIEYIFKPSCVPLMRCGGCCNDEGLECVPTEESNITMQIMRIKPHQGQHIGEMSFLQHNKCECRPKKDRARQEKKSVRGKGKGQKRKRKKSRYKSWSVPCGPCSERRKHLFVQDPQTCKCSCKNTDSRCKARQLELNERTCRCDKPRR
# Assay: competition ELISA against hVEGR1, EC50 ratio to reference Luc
row,Rel. activity hVEGR1 comp. ELISA (EC50Luc[nM]/EC50test[nM]) [ratio],Binder
1,0.7,B1
2,8,B2
3,4.8,B3
4,57,B4
5,2.9,B5

# Biological target: T1, recombinant human VEGF165 (PeproTech EC Ltd.) (human, UniProt P15692-4 27-191)
# T1 construct: Amine-coupled to a CM4 sensor chip; also called hVEGF165
# T1 sequence (P15692 other isoform, or with tags, fused parts or gaps limits assumed): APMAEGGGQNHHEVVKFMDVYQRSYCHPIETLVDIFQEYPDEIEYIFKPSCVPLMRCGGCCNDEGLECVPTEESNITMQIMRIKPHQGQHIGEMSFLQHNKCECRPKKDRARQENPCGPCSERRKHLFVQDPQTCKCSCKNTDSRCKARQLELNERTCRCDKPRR
# Assay: SPR BIAcore T100, hVEGF165 amine-coupled on CM4 chip, scFv as analyte
Kd [nM],koff [s⁻¹],kon [M⁻¹ s⁻¹],Binder
2.53,0.00128,505000,B1
0.0667,4.4e-05,659000,B2
9.01,0.0103,1.14e+06,B3
0.439,0.000307,700000,B6
0.23,0.000461,2.01e+06,B4
1.82,0.00114,623000,B5
0.188,0.000226,1.2e+06,B7

# Biological target: VEGF (as used in the VEGFR competition ELISA)
# Assay: competition ELISA against hVEGR1, EC50 ratio to reference Luc; first of two values in the cell
row,Rel. activity hVEGR1 comp. ELISA (EC50Luc[nM]/EC50test[nM]) [ratio],Binder
1,35.5,B6
2,15.7,B7

# Biological target: VEGF (as used in the VEGFR competition ELISA)
# Assay: competition ELISA against hVEGR1, EC50 ratio to reference Luc; second of two values in the cell
row,Rel. activity hVEGR1 comp. ELISA (EC50Luc[nM]/EC50test[nM]) [ratio],Binder
1,51.6,B6
2,54.5,B7
